Experimental data: patent US20180334496A1 (KODIAK SCIENCES, published 2018)

Columns and labels:
Assay in all cases: SPR MX96
[1] = biological target: T1, recombinant human CFD, His-tagged (human, UniProt P00746 26-253)
T1 construct: also called rhCFD-His

[2] = biological target: T2, human complement factor D purified from serum (human, UniProt P00746 26-253)
T2 construct: serum-purified (CompTech); also called hCFD-Comptech; CFD

[3] = biological target: T3, recombinant cynomolgus CFD, His-tagged (cynomolgus)
T3 construct: also called rcyCFD-His; recombinant Cyno-CFD

[4] = biological target: T4, recombinant human CFD mutant 1 (R157A, R207A), His-tagged (human, UniProt P00746 26-253)
T4 construct: positions are linear positions in the mature protein; also called rhCFD-mut1-His; Mut1
T4 sequence (P00746 26-253 R182A/R232A limits assumed): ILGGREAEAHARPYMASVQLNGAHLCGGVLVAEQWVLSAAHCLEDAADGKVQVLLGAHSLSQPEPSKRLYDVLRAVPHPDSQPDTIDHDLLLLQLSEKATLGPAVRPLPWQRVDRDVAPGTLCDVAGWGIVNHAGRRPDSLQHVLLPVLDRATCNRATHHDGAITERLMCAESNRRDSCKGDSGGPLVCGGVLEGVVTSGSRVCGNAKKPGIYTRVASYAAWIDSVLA

T2 sequence (P00746 26-253): as the sequence (P00746 26-253 R182A/R232A limits assumed) above, with A157R, A207R counted along it
T1 sequence (P00746 26-253 limits assumed): as the sequence (P00746 26-253 R182A/R232A limits assumed) above, with A157R, A207R counted along it

Row | Binder | Kd [1] [nM] | Kd [2] [nM] | Kd [3] [nM] | Kd [4] [nM]
1 | KCD001 (antibody, V domains shown) VH: EVQLQQSGPELVKPGASVKISCKASDNSFTGYYMHWVKQSHGNILDWIGYIDPYNGVSSYNQKFKGKATLTVDKSSSTAYMEIRSLTSEDSAVYYCASYYGSSPYWYFDVWGTGTTVTVSS VL: QIVLSQSPAILSASPGEKVTMTCRASSSVSYMHWYQQKPGSSPKPWIYATSNLASGVPARFSGSGSGTSHFLTISRLEAEDAATYFCQQWSSNPYTFGGGTKLEIK | 0.22 | 0.22 | 0.63 | 0.19
2 | KCD110 (antibody, V domains shown) VH: EVQLQQSGPELVKPGASVKISCKASGYSFTGYYMHWVKQSHGNILDWIGYIDPDNGVSSKNQKFTGKATVTADKSSSTAYMELRSLTSEDSAVYYCAGYYGSSWYWYFDVWGTGTTVTVSS VL: QIVLSQSPAILSASPGEKVTMTCRASSSVSYMHWYQQKPGSSPKPWIYATSNLASGVPARFSGSGSGTSYSLTISRVEAEDAATYYCQQWSSNPYTFGGGTKLEIK | 2 | 3.7 | 5.3 | 4.1
3 | KCD062 (antibody, V domains shown) VH: EVKLVESGGGLVQPGGSLKLSCAASGFTFSTYIMSWVRQTPEKRLEWVAYITSGGSSTYYPDTVKGRFTISRDNAKSTLYLQMSSLKSEDTAMYYCARHAHFYAMDYWGQGTSVTVSS VL: DIQMTQSPSSLSASLGGKVTITCKASQDINKYIAWYQHKPGKGPRLLIHYTSTLQPGIPSRFSGSGSGRDYSFSISNLEPEDIATYYCLQYDNLLYTFGGGTKLEIK | 32 | 24 | 19 | 62
4 | KCD064 (antibody, V domains shown) VH: EVKLVESGGGLVQPGGSLKLSCAASGFTFSSYIMSWVRQTPEKRLGWVAYITSGGGSTYYPDTVKGRFTISRDNAKNTLYLQMSSLKSEDTAMYYCARHGTGYAMDYWGQGTSVTVSS VL: DIQMTQSPSSLSASLGGKVTITCKASQDINKYIAWYQHKPGKGPRLLIHYTSTLQPGIPSRFSGSGSGRDYSFSISNLEPEDIATYYCLQYDNLLYTFGGGTELEIK | 20 | 20 | 15 | 37
5 | KCD033 (antibody, V domains shown) VH: EVQLQQSGPELVKPGASMKISCTASGYSFTGYTMTWVKQSHGKNLEWIGLINPYNGGTNYNQKFKGKATLTVDKSSSIAYMELLSLTSEDSAVYYCARRHYGSNWDYWGQGTTLTVSS VL: DIKLTQSPSSIYTSLGERVTITCKASQDINTYLSWFQQRPGKSPKTLIYRADRLVDGVPSRVRGSGSGQDYSLTISSLEYEDMGIYYCLQYDEFPYTFGGGTKLEIK | 19 | 11 | 93 | 28
6 | KCD036 (antibody, V domains shown, chimeric) VH: EVQLQQSGPELVKPGASMKISCKASGYSFTGYTMTWVKQSHGKNLEWIGLINPYNGGTNYNQKFKGKATFTVDKSSSTAYMELLSLTSEDSAVYYCARRHYGSSWDYWGQGTTLTVSS VL: DIKLTQSPSSMYASLGERVTITCKASQDINTYLSWFQQKPGKSPKTLIYRANRLVDGVPSRFSGSGSGQDYSLTISSLEYEEMGIYYCLQYDEFPYTFGGGTKLEIK | 29 | 26 | 64 | 80
7 | KCD212 (antibody, V domains shown) VH: EVHLVESGGDLVKPGGSLKLSCAASGFTFSRYGMSWVRQTPDKRLEWVATISSAGSYTYYPDSVKGRFTISRDNAKNTLFLQMSSLKSEDTAMYYCARPLNYYGTSSFDYWGQGTTLTVSS VL: QIVLTQSPAIMSASPGEKVTMTCRASSSVSSTYLHWYQQKPGSSPKLWIYSTSNLASGVPPRFSGSGSGTSYSLTISSVEAEDAATYYCQQYDSSPNTFGAGTKLELK | 0.21 | 0.47 | 3.8 | 0.2
8 | KCD139 (antibody, V domains shown) VH: EVQLQQSGAELVRPGSSVKMSCKTSGYTFTSYGINWVKQRPGQGLEWIGYIYIANGYTENNEKFKGKAKLTSDISSSTAYMQLSSLTSEDSAIYFCARRFDYAGALDYWGQGTSVTVSS VL: DIVLTQSPASLAVSLGQRATISCRASESVDSYGNSFMHWYQQKPGQPPKLLIHRASNLESGIPARFSGSGSRTDFTLTINPVEADDVAIYYCQQTNDDPYTFGGGTNLEIK | 3.3 | 5.3 | 3.8 | 3.5
9 | KCD128 (antibody, V domains shown) VH: QVQLQQPGAELVRPESSVKLSCKASGYTFTSYWMDWVMQRPGQGLEWIGNIYPSGSETHYNQKFKDKATLTVDKSSTTAYMQLSSLTFEDSAVYYCARSGFIGSRYLYYFDYWGQGTTLTVSS VL: DIVMTQSHKFMSTSVGDRVTITCKASQDVSNAVAWYQLKPGQSPKLLIYSASYRYTGVPDRFTGSGSGTDFTFTISSVQAADLAVYYCQQHYITPYTFGGGTKLEIK | 14 | 14 | 3.3 | 13
10 | KCD075 (antibody, V domains shown) VH: QVQLLQPGAELVRPGTSVKLSCKASGYTFSNYWINWVKQRPGQGLEWIGNIYPSDSSINYNQKFKDKATLTVDKSSTTAYMQLSSPTSEDSAVYYCTGTDWYFDVWGAGTTVTVSS VL: DIQMTQTTSSLSASLGDRVTISCSGGQGISNYLNWYQQKPDGTFKLLIYYTSTLHSGVPSRFSGSGSGTDYSLTISNLEPEDVATYYCQQYSKLPYTFGGGTKLEIK | 2.5 | 3.7 | 3.2 | 3.4
11 | KCD225 (antibody, V domains shown) VH: QVQLQQSGPELVKPGASVKISCKASGYTFTDYYINWMKQRPGQGLEWIGWIFPGSDSTYYNEKFKGKATLTVDKSSSTAYMLLSSLTSEDSAVYFCARLGYYSHSYYAMDYWGQGTSVTVSS VL: DIQMTQSPASLSVSTGETVTITCRASENIYSNLAWFQQKQGKSPQLLVYAATNLADGVPSRFSGSGSGTQYSLKITSLQSEDFGSYYCQHFWGTPLTFGAGTKLDLK | 5 | 8.7 | 46 | 6.2
12 | KCD132 (antibody, V domains shown) VH: QVQLQQSGPELVKPGASVKISCKASGYSFTDYYINWVKQRPGQGLEWIGWIFPGSGSTYYNEKFKGKATLTVDKSSSTAYMLLSSLTSEDSAVYFCARTGYYSNLYAVDYWGQGTSVTVSS VL: DIQMTQSPASLSVSVGETVTITCRASENIYSNLAWYQQKQGKSPQLLVYVATNLADGVPSRFSGSGSGTQYSLKINSLQSEDFGNYYCQHFWGTPYTFGGGTKLEMR | 1.6 | 2.6 | 8 | 1.4
13 | KCD219 (antibody, V domains shown) VH: QVQLQQSGPELVKPGASVKISCKASGYTFTDYYINWVKQRPGQGLEWIGWIFPGSGSTYYNEKFKGKATLTVDKSSSTAYMLLSSLPSEDSAVYFCARYGYYGSSFYAMDYWGQGTSVTVSS VL: DIQMTQSPASLSVSVGETVTITCRASENIYSNLAWYQQKQGKSPQLLVYAATNLADGVPSRFSGSGSGTQYSLKINSLQSEDFGSYYCQHFWGSPPTFGGGTKLEIK | 3 | 4.3 | 12 | 3.6
14 | KCD013 (antibody, V domains shown) VH: EVQLQQSGAELVKPGASVKLSCTASGFKIKDTYMHWVKERPDQGLEWIGRIDPANGNTKYDPKFQGKATITADTSSNTAYLQLSSLTSEDTAVYYCANAMDYWGQGTSVTVSS VL: QIILTQSPAIMSASPGEKVTMTCSASSSVSNMYWYQQKPGSSPRLLIYDTSNLASGVPVRFSGSGSGASYSLTISRMEAEDAATYYCQQWSSYPWTFGGGTKLEIK | 11 | 7.3 | 93 | 19
15 | KCD015 (antibody, V domains shown) VH: EVQLQQSGAELVKPGASVKLSCTASGFNIKDTYMHWVKQRPEQGLEWIGRIDPANGYTEYDPKFQGKATITADTSSNTAYLQLSSLTSEDSAAYYCTSAMEFWGQGTSVTVSS VL: QIVLTQSPAILSASPGEKVTMTCSASSSVSYIYWYQQKPRSSPRLLIYDTSNLASGVPVRFSGSGSGTSYSLTISRMEAEDAATYYCQQWSSYPFTFGGGTKLEVK | 4.5 | 6.2 | 250 | 3.7
16 | KCD022 (antibody, V domains shown) VH: DVQLQESGPDLVKPSQSLSLTCTVTGYSITSGYSWHWIRQFPGNTLEWMGYIHYSGSTNYNPSLESRISFTRDTSKNQFFLQLNSVTTEDTATYYCALHFYGYNLGWYFDVWGAGTTVTVSS VL: DIVMTQSHKFMSTSIGDRVIITCKASQDVGTTVAWYQQRPGQSPKLLIYWASTRHTAVPDRFTGSGSGTDFTLTISNVQSEDLADYFCQQYTSYPLTFGAGTQLELK | 83 | 57 | 54 | 110
17 | KCD137 (antibody, V domains shown) VH: EVQLVESGGDLVKPGGSLKLSCAASGFTFSGYGMSWVRQIPDKRLEWVAISSRDNSFTYYPDSVKGRFTISRDNAKNTLYLQMSSLKSEDTALYFCTRHPYLPTGGYVMDYWGQGTSVTVSS VL: DIVMTQSHKFMSTSVGDRVSITCKASQDVGTAVAWYQQRPGQSPKLLIYWASTRHTGVPDRFTGSGSGTDFTLTVSNVQSEDLADYFCQQYTSYPLTFGAGTKLELK | 5.5 | 0.5 | 5.9 | 4.6
18 | KCD230 (antibody, V domains shown) VH: QVQLQQPGTELVKPGASVKLPCKASGYTFTSYWMQWVKQRPGQGLEWIGEIDPSDTYINYNQKFKGKATLTVDTSSTTAYMQLSSLTSEDSAVYYCARYTTIMASDYWGQGTTLTVSS VL: DIQMTQTTSSLSVSLGDRVTISCRASQDITNYLNWYQQKPDGTVKLLIYFTSRLHSGVPSRFSGSGSGTDYSLTISNLEPEDIATYYCQQYSKLPWTFGGGTKLEIK | 1.6 | 2.5 | 2.7 | 0.88
